Square brackets hold non-standard residues; d marks the D form. Ends that are not written are not given here. sY = N[C@@H](Cc1ccc(OS(=O)(=O)O)cc1)C(=O)O
Biological target: Full-length gp120 from the subtype B YU2 HIV-1 strain (HIV-1, subtype B, strain YU2, UniProt P35961 32-498)
Assay: ITC

For MDYQVSSPI[sY]DIN[sY]YTSEPSQK [S22 peptide, 22 amino acid tyrosine-sulfated peptide corresponding to the CCR5 N-terminus], which Kd is on record?
The Kd was no less than 1 mM.
